Data from the supplement of paper PMC12764529.
± gives the half width of the 95% confidence interval.

assay: folding stability dG unfold (combined trypsin and chymotrypsin); higher = more stable
Procedure, shortened: (§1)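 Bayesian fitting of sequencing counts gave K50 for each design. Unfolding free energy followed by setting this against a sequence-predicted unfolded-state K50 and a shared folded-state K50, either per protease or with trypsin and chymotrypsin combined. The designs, under 80 residues and lacking cysteine, were digested in a PA-tagged cDNA display format at 11 threefold-diluted protease concentrations and without protease, and only those with AlphaFold2 dimer inter-PAE above 15 were kept.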

Row | Sequence | folding stability dG unfold
1 | SAGMEIEITGPNLEELAEKVAKELKEKNWSPPVTITLKEPGGKTVLKVTVEFNPPNPNEIKVTKEKVESAGG [r19_85_JUSTAS] | 0.683 ± 0.18 kcal/mol
2 | MEELEKLPGIKVEPIREEDGRLYLRVTFTDEVAKALGKPPVTVLIEVEPGEELELSPELRELLRKLGIEVVS [r1_256_TrROS_Hall] | 3.86 ± 0.12 kcal/mol
3 | SAGGSAGGSAGGSMTTVTLPDAVSTNVTTTKLPDNTTKVDITTTFPDGSTRSSTITINPSAGGSAGGSAGGS [r4_452_JUSTAS] | 0.908 ± 0.07 kcal/mol
4 | ITIRIPPNGNIRIEMIDPNGKWWTYTFPVKDPEENLQRLKDIIRDFFPGFEDVDVKITEVEDGWVTITVPLS [r1_389_TrROS] | 4.76 ± 0.21 kcal/mol
5 | SAGGSAGGSIWIPPNHSVEEFAKEIQDKGNAEVKRDEPGWYKIKSKNNKPKKRIRFQANPEQFSAGGSAGGS [r20_236_TrROS] | -0.046 ± 0.43 kcal/mol
6 | SAGGGEYYAIVRIEVKDPESEETSELELVIPVEGLSEEEALEIARAIAETFPKENVKAEVEIVPRELSAGGS [r16_774_TrMRF] | 0.936 ± 0.11 kcal/mol
7 | SAGGSAGGSNGDKKPPVKWEWVMIEIEIPPDDIDEIAEEFPGFSVNYERDNGHYRVNIMIPVPYSAGGSAGG [r6_686_TrROS] | 1.73 ± 0.089 kcal/mol
8 | SAGGLPELLKALGLPVTSVRSVPVLLPGGRPALVTFVEFEDPEGERYRLVVVRLPNGEVLVRVERLDPSAGG [r13_818_TrMRF] | 4.53 ± 0.1 kcal/mol
9 | SKKVTLPIYFPETGEVVTIDLDELAKALGVDPDKLTLTVVSSGKGRVYRIEVFKDGIRIEEIGDVPPELLSA [r9_819_TrMRF] | 2.63 ± 0.05 kcal/mol
10 | SAGGSAGGSAGGDAPNTTVTVTLKAEVYYDPSTGALVVKVTAYFPATNTTVTLEFTFPLSAGGSAGGSAGGS [r10_187_TrMRF] | 4.76 ± 0.72 kcal/mol
11 | SAGGSALPDIEVEELVRRLLELLEEDQPFRIVVFPPGGRWLTLDELLNVPAEEIPDLVVLVFVPDLSAGGSA [r15_144_TrMRF] | 3.3 ± 0.088 kcal/mol
12 | SMSFEAELTLPDQPVTVPVTLDPATGTATVTVTTTHPDRDETTTTTVTVSDPSELLALLRELPPGATLRLSA [r9_713_JUSTAS] | 0.771 ± 0.068 kcal/mol
13 | SAGFSVEVTYNPPTGYLEIRFYNPPPNKPLKKETLEEIARKLLEELGIEGEIVEIKEEGNVYTIKVKIPSAG [r14_556_TrMRF] | 4.62 ± 0.084 kcal/mol
14 | SAGGSAGGSAWHIRIHPGNEPQWIPIDDLRDKGLPPEELAEELQKKFGFKVEIVDPGWIRVKSAGGSAGGSA [r18_7_TrROS] | -0.348 ± 0.24 kcal/mol
15 | SAGGSAKLTAEEIKKLPPNARIYFDKETGRVFIEVDGKLVVIEIDKETKEVKVVKVFPSKEALEKASAGGSA [r15_6_TrROS_Hall] | 1.82 ± 0.12 kcal/mol
16 | SAGGSAGGSAGGKIIHPDLKKPLDVLEKFELIIGGKPYLFFLSRGEGELRLLVIPAGKESAGGSAGGSAGGS [r10_517_TrMRF] | 2.15 ± 0.048 kcal/mol
17 | SAGGSAGGSAGGMTVTVEISIPVTVETSFFKPNKPYFKKKTINKKITIEIPNGEPLSLLSAGGSAGGSAGGS [r10_633_JUSTAS] | 0.249 ± 0.13 kcal/mol

assay: folding stability dG unfold from trypsin proteolysis; higher = more stable
Procedure, shortened: as §1

Row | Sequence | folding stability dG unfold
18 | SAGMEIEITGPNLEELAEKVAKELKEKNWSPPVTITLKEPGGKTVLKVTVEFNPPNPNEIKVTKEKVESAGG [r19_85_JUSTAS] | 0.571 ± 0.14 kcal/mol
19 | MEELEKLPGIKVEPIREEDGRLYLRVTFTDEVAKALGKPPVTVLIEVEPGEELELSPELRELLRKLGIEVVS [r1_256_TrROS_Hall] | 2.6 ± 0.061 kcal/mol
20 | SAGGSAGGSAGGSMTTVTLPDAVSTNVTTTKLPDNTTKVDITTTFPDGSTRSSTITINPSAGGSAGGSAGGS [r4_452_JUSTAS] | -0.305 ± 0.049 kcal/mol
21 | ITIRIPPNGNIRIEMIDPNGKWWTYTFPVKDPEENLQRLKDIIRDFFPGFEDVDVKITEVEDGWVTITVPLS [r1_389_TrROS] | 4.05 ± 0.17 kcal/mol
22 | SAGGSAGGSIWIPPNHSVEEFAKEIQDKGNAEVKRDEPGWYKIKSKNNKPKKRIRFQANPEQFSAGGSAGGS [r20_236_TrROS] | -0.163 ± 0.5 kcal/mol
23 | SAGGGEYYAIVRIEVKDPESEETSELELVIPVEGLSEEEALEIARAIAETFPKENVKAEVEIVPRELSAGGS [r16_774_TrMRF] | 1.05 ± 0.043 kcal/mol
24 | SAGGSAGGSNGDKKPPVKWEWVMIEIEIPPDDIDEIAEEFPGFSVNYERDNGHYRVNIMIPVPYSAGGSAGG [r6_686_TrROS] | 1.35 ± 0.021 kcal/mol
25 | SAGGLPELLKALGLPVTSVRSVPVLLPGGRPALVTFVEFEDPEGERYRLVVVRLPNGEVLVRVERLDPSAGG [r13_818_TrMRF] | 3.39 ± 0.15 kcal/mol
26 | SKKVTLPIYFPETGEVVTIDLDELAKALGVDPDKLTLTVVSSGKGRVYRIEVFKDGIRIEEIGDVPPELLSA [r9_819_TrMRF] | 2.2 ± 0.03 kcal/mol
27 | SAGGSAGGSAGGDAPNTTVTVTLKAEVYYDPSTGALVVKVTAYFPATNTTVTLEFTFPLSAGGSAGGSAGGS [r10_187_TrMRF] | 3.66 ± 0.24 kcal/mol
28 | SAGGSALPDIEVEELVRRLLELLEEDQPFRIVVFPPGGRWLTLDELLNVPAEEIPDLVVLVFVPDLSAGGSA [r15_144_TrMRF] | 3.04 ± 0.091 kcal/mol
29 | SMSFEAELTLPDQPVTVPVTLDPATGTATVTVTTTHPDRDETTTTTVTVSDPSELLALLRELPPGATLRLSA [r9_713_JUSTAS] | 0.307 ± 0.079 kcal/mol
30 | SAGFSVEVTYNPPTGYLEIRFYNPPPNKPLKKETLEEIARKLLEELGIEGEIVEIKEEGNVYTIKVKIPSAG [r14_556_TrMRF] | 4.56 ± 0.19 kcal/mol
31 | SAGGSAGGSAWHIRIHPGNEPQWIPIDDLRDKGLPPEELAEELQKKFGFKVEIVDPGWIRVKSAGGSAGGSA [r18_7_TrROS] | -0.284 ± 0.26 kcal/mol
32 | SAGGSAKLTAEEIKKLPPNARIYFDKETGRVFIEVDGKLVVIEIDKETKEVKVVKVFPSKEALEKASAGGSA [r15_6_TrROS_Hall] | 1.57 ± 0.054 kcal/mol
33 | SAGGSAGGSAGGKIIHPDLKKPLDVLEKFELIIGGKPYLFFLSRGEGELRLLVIPAGKESAGGSAGGSAGGS [r10_517_TrMRF] | 1.54 ± 0.021 kcal/mol
34 | SAGGSAGGSAGGMTVTVEISIPVTVETSFFKPNKPYFKKKTINKKITIEIPNGEPLSLLSAGGSAGGSAGGS [r10_633_JUSTAS] | 0.492 ± 0.14 kcal/mol

assay: folding stability dG unfold from chymotrypsin proteolysis; higher = more stable
Procedure, shortened: as §1

Row | Sequence | folding stability dG unfold
35 | SAGMEIEITGPNLEELAEKVAKELKEKNWSPPVTITLKEPGGKTVLKVTVEFNPPNPNEIKVTKEKVESAGG [r19_85_JUSTAS] | 0.902 ± 0.062 kcal/mol
36 | MEELEKLPGIKVEPIREEDGRLYLRVTFTDEVAKALGKPPVTVLIEVEPGEELELSPELRELLRKLGIEVVS [r1_256_TrROS_Hall] | 4.34 ± 0.11 kcal/mol
37 | SAGGSAGGSAGGSMTTVTLPDAVSTNVTTTKLPDNTTKVDITTTFPDGSTRSSTITINPSAGGSAGGSAGGS [r4_452_JUSTAS] | 1.32 ± 0.05 kcal/mol
38 | ITIRIPPNGNIRIEMIDPNGKWWTYTFPVKDPEENLQRLKDIIRDFFPGFEDVDVKITEVEDGWVTITVPLS [r1_389_TrROS] | 4.96 ± 0.23 kcal/mol
39 | SAGGSAGGSIWIPPNHSVEEFAKEIQDKGNAEVKRDEPGWYKIKSKNNKPKKRIRFQANPEQFSAGGSAGGS [r20_236_TrROS] | 0.24 ± 0.53 kcal/mol
40 | SAGGGEYYAIVRIEVKDPESEETSELELVIPVEGLSEEEALEIARAIAETFPKENVKAEVEIVPRELSAGGS [r16_774_TrMRF] | 0.896 ± 0.16 kcal/mol
41 | SAGGSAGGSNGDKKPPVKWEWVMIEIEIPPDDIDEIAEEFPGFSVNYERDNGHYRVNIMIPVPYSAGGSAGG [r6_686_TrROS] | 1.94 ± 0.093 kcal/mol
42 | SAGGLPELLKALGLPVTSVRSVPVLLPGGRPALVTFVEFEDPEGERYRLVVVRLPNGEVLVRVERLDPSAGG [r13_818_TrMRF] | 4.9 ± 0.12 kcal/mol
43 | SKKVTLPIYFPETGEVVTIDLDELAKALGVDPDKLTLTVVSSGKGRVYRIEVFKDGIRIEEIGDVPPELLSA [r9_819_TrMRF] | 2.848 ± 0.017 kcal/mol
44 | SAGGSAGGSAGGDAPNTTVTVTLKAEVYYDPSTGALVVKVTAYFPATNTTVTLEFTFPLSAGGSAGGSAGGS [r10_187_TrMRF] | 4.66 ± 0.25 kcal/mol
45 | SAGGSALPDIEVEELVRRLLELLEEDQPFRIVVFPPGGRWLTLDELLNVPAEEIPDLVVLVFVPDLSAGGSA [r15_144_TrMRF] | 3.49 ± 0.06 kcal/mol
46 | SMSFEAELTLPDQPVTVPVTLDPATGTATVTVTTTHPDRDETTTTTVTVSDPSELLALLRELPPGATLRLSA [r9_713_JUSTAS] | 0.974 ± 0.059 kcal/mol
47 | SAGFSVEVTYNPPTGYLEIRFYNPPPNKPLKKETLEEIARKLLEELGIEGEIVEIKEEGNVYTIKVKIPSAG [r14_556_TrMRF] | 4.65 ± 0.068 kcal/mol
48 | SAGGSAGGSAWHIRIHPGNEPQWIPIDDLRDKGLPPEELAEELQKKFGFKVEIVDPGWIRVKSAGGSAGGSA [r18_7_TrROS] | -0.364 ± 0.42 kcal/mol
49 | SAGGSAKLTAEEIKKLPPNARIYFDKETGRVFIEVDGKLVVIEIDKETKEVKVVKVFPSKEALEKASAGGSA [r15_6_TrROS_Hall] | 1.86 ± 0.1 kcal/mol
50 | SAGGSAGGSAGGKIIHPDLKKPLDVLEKFELIIGGKPYLFFLSRGEGELRLLVIPAGKESAGGSAGGSAGGS [r10_517_TrMRF] | 2.53 ± 0.055 kcal/mol
51 | SAGGSAGGSAGGMTVTVEISIPVTVETSFFKPNKPYFKKKTINKKITIEIPNGEPLSLLSAGGSAGGSAGGS [r10_633_JUSTAS] | -0.0788 ± 0.2 kcal/mol
